Reference: US20050282743A1, “Molecular interactions in cells” (Arbor Vita Corporation, priority 2001, published 2005)
Read-outs that look alike come from different tables or passages of the source.

Tests used:
Test in all cases: G' assay
[1] = molecular target: GST-KIAA0316 PDZ domain 1 (Homo sapiens (Human)), Q14CM0
[2] = molecular target: T1, GST-KIAA0380 PDZ domain 1 (Homo sapiens (Human)), O15085
T1 chain: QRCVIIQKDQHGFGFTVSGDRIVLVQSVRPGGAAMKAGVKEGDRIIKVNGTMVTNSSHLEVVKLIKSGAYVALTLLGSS

[3] = molecular target: GST-DLG2 PDZ domain 1 (Homo sapiens (Human)), Q15700
[4] = molecular target: T2, GST-FLJ11215 PDZ domain 1 (Mus musculus (Mouse)), O88952
T2 chain: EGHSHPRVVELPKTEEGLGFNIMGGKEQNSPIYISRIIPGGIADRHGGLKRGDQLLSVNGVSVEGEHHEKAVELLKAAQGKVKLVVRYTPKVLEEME

[5] = molecular target: T3, GST-PSD95 PDZ domain 3 (Homo sapiens)
T3 chain: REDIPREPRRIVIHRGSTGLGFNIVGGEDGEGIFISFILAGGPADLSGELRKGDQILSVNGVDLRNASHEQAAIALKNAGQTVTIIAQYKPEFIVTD

[6] = molecular target: T4, GST-PTN-4 PDZ domain 1 (Homo sapiens (Human)), P29074
T4 chain: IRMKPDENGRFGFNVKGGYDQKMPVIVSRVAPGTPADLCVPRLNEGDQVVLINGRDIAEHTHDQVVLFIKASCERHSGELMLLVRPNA

[7] = molecular target: T5, GST-GRIP 1 PDZ domain 3 (Homo sapiens (Human)), Q9Y3R0
T5 chain: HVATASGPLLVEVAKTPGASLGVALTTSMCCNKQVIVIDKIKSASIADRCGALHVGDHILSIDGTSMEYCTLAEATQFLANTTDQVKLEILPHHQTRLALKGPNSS

[8] = molecular target: GST-PIST PDZ domain 1 (Mus musculus (Mouse)), Q8BH60
[9] = molecular target: GST-Unnamed Protein PDZ domain 2 [GST: P08515]
[10] = molecular target: GST-KIAA1222 PDZ domain 1 (Rattus norvegicus (Rat)), O35867
[11] = molecular target: T6, GST-Atrophin-1 Interacting Protein PDZ domain 6 (Rattus norvegicus (Rat)), O88382
T6 chain: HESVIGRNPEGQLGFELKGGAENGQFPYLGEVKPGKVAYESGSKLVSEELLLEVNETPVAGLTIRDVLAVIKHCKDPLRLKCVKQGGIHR

[12] = molecular target: GST-CARD14 PDZ domain 1 (Homo sapiens (Human)), Q9BXL6
[13] = molecular target: T7, GST-DLG5 PDZ domain 2 (Homo sapiens (Human)), Q8TDM6
T7 chain: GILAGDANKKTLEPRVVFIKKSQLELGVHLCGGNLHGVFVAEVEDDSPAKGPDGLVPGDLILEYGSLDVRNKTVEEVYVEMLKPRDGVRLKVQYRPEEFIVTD

[14] = molecular target: T8, GST-KIAA0340 PDZ domain 1 (Homo sapiens (Human)), Q86UR5
T8 chain: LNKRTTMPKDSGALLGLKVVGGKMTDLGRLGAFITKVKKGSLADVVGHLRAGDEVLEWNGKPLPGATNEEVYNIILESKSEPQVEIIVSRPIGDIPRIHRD

[15] = molecular target: T9, GST-MUPP1 PDZ domain 6 (Homo sapiens (Human)), O75970
T9 chain: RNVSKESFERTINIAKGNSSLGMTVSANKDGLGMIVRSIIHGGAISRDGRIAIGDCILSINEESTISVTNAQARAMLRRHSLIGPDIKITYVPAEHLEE

[16] = molecular target: T10, GST-SITAC-18 PDZ domain 1 (Homo sapiens (Human)), Q9H190
T10 chain: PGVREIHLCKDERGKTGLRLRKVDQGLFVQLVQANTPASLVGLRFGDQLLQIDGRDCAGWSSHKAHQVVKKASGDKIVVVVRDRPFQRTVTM

[17] = molecular target: T11, GST-SITAC-18 PDZ domain 2 (Homo sapiens (Human)), Q9H190
T11 chain: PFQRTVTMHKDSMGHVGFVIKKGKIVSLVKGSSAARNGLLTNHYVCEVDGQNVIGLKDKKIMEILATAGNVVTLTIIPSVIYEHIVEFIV

[18] = molecular target: T12, GST-DVL2 PDZ domain 1 (Homo sapiens (Human)), O14641
T12 chain: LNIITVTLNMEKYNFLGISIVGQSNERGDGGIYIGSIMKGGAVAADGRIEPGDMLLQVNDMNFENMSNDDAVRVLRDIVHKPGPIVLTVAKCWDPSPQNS

[19] = molecular target: T13, GST-GRIP 1 PDZ domain 5 (Homo sapiens (Human)), Q9Y3R0
T13 chain: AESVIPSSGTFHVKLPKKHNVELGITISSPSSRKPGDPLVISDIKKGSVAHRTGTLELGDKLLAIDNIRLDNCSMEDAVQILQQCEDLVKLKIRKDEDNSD

[20] = molecular target: T14, GST-MUPP1 PDZ domain 2 (Homo sapiens (Human)), O75970
T14 chain: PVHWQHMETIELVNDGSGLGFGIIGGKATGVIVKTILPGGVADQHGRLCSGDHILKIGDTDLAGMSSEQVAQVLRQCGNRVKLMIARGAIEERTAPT

[21] = molecular target: T15, GST-MUPP1 PDZ domain 3 (Homo sapiens (Human)), O75970
T15 chain: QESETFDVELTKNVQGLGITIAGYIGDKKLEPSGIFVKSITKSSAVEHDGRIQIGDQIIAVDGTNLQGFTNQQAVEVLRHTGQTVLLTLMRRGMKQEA

[22] = molecular target: T16, GST-KIAA1095 PDZ domain 1 (Homo sapiens (Human)), Q9UPQ7
T16 chain: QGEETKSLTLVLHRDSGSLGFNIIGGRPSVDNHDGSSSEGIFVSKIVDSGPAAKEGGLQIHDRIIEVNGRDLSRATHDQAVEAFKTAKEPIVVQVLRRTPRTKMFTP
Note: key of the grades not given here.

Chain of GST-CARD14 PDZ domain 1 (Homo sapiens (Human)), Q9BXL6 (Q9BXL6 565-664): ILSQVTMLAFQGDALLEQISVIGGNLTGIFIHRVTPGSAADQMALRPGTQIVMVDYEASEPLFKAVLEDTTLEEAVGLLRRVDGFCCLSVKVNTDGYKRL
Chain of GST-KIAA1222 PDZ domain 1 (Rattus norvegicus (Rat)), O35867 (O35867 499-598, tags or fused parts left off): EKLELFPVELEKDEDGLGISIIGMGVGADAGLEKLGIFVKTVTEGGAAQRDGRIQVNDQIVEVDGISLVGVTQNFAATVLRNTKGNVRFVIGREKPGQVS
Chain of GST-Unnamed Protein PDZ domain 2 [GST: P08515] (P08515 whole entry, the tested form may be a part): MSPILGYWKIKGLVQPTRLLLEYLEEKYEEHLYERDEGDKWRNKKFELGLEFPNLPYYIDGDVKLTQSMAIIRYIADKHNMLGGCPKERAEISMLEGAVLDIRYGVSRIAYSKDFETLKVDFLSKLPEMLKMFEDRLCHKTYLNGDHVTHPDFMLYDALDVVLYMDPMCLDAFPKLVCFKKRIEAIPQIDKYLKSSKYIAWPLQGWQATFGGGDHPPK
Chain of GST-KIAA0316 PDZ domain 1 (Homo sapiens (Human)), Q14CM0 (Q14CM0 72-159): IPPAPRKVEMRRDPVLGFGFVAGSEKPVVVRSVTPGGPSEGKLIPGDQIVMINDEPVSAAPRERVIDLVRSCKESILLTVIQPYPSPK

Question: How did the Classification [1] turn out when VPGALDYAAFSSALYGESDL (modifications not checked) [a-actinin 2] was run?
Answer: 1 A450 class

Question: What about the Classification [2] of the same binder?
Answer: 1 A450 class

Question: Which Classification [3] does the source give for QISPGGLEPPSEKHFRETEV (modifications not checked) [TAX] here?
Answer: 2 A450 class

Question: And the Classification [4]?
Answer: 1 A450 class

Question: What about the Classification [5] of the same binder?
Answer: 1 A450 class

Question: What about the Classification [6] of the same binder?
Answer: 2 A450 class

Question: Which Classification [7] does the source give for AWDDSARAAGGQGLHVTAL (modifications not checked) [LPAP] here?
Answer: 1 A450 class

Question: And the Classification ([1]; remark: other sources report otherwise)?
Answer: 1 A450 class

Question: What about the Classification [8] of the same binder?
Answer: 1 A450 class

Question: And the Classification [9]?
Answer: 3 A450 class

Question: Which results are given for VGTLLLERVIFPSVKIATLV (modifications not checked) [AdenoE4 typ9]?
Answer: Classification [10]: 1 A450 class; Classification [8]: 1 A450 class

Question: For HDFRRAFKKILARGDRKRIV (modifications not checked) [alpha-2A Adrenergic receptor], which Classification [11] is on record?
Answer: 1 A450 class

Question: What about the Classification [12] of the same binder?
Answer: 1 A450 class

Question: And the Classification [13]?
Answer: 1 A450 class

Question: And the Classification [14]?
Answer: 1 A450 class

Question: And the Classification [15]?
Answer: 2 A450 class

Question: And the Classification [16]?
Answer: 4 A450 class

Question: And the Classification [17]?
Answer: 4 A450 class

Question: And the Classification [9]?
Answer: 1 A450 class

Question: ELLQFCRTPNPALKNGQYWV (modifications not checked) [CSPG4 (chondroitin sulfae proteoglycan 4, melanoma-associated)] was tested. Which Classification [18] did it give?
Answer: 5 A450 class

Question: What about the Classification [19] of the same binder?
Answer: 1 A450 class

Question: What about the Classification [20] of the same binder?
Answer: 5 A450 class

Question: Which Classification [18] does the source give for KTMPAAMYRLLTAQEQPVYI (modifications not checked) [MINT-1] here?
Answer: 2 A450 class

Question: What about the Classification [10] of the same binder?
Answer: 1 A450 class

Question: And the Classification [20]?
Answer: 1 A450 class

Question: And the Classification [21]?
Answer: 3 A450 class

Question: For ILNSIQVMRAQMNQIQSVEV (modifications not checked) [ephrin B2], which Classification [11] is on record?
Answer: 1 A450 class

Question: And the Classification [12]?
Answer: 1 A450 class

Question: What about the Classification [13] of the same binder?
Answer: 1 A450 class

Question: And the Classification [7]?
Answer: 1 A450 class

Question: And the Classification [19]?
Answer: 1 A450 class

Question: And the Classification [14]?
Answer: 2 A450 class

Question: What about the Classification [21] of the same binder?
Answer: 1 A450 class

Question: What about the Classification [15] of the same binder?
Answer: 2 A450 class

Question: And the Classification [16]?
Answer: 3 A450 class

Question: And the Classification [17]?
Answer: 3 A450 class

Question: How did the Classification [22] turn out when PIPAGGCTFSGIFPTLTSPL (modifications not checked) [KIA 1481] was run?
Answer: 1 A450 class

Question: Which Classification [3] does the source give for TQGFPGPATWRRISSLESEV (modifications not checked) [NMDA Glutamate Receptor 2C (cysteine-free)] here?
Answer: 4 A450 class

Question: And the Classification [4]?
Answer: 1 A450 class

Question: What about the Classification [2] of the same binder?
Answer: 1 A450 class

Question: And the Classification [22]?
Answer: 1 A450 class

Question: What about the Classification [5] of the same binder?
Answer: 2 A450 class

Question: And the Classification [6]?
Answer: 2 A450 class
